Reference: the supplement of paper PMC5998384

Columns and labels:
[1] = tested on: HeLa Kyoto; experiment: thermal stability score vs G1/S (z-score of summed log2 fold changes over temperatures); higher = more thermally stable than in G1/S
[2] = tested on: HeLa Kyoto; experiment: melting temperature (median over replicates), in situ; higher = more thermally stable
[3] = cell cycle stage: early G1 (4.5 h after nocodazole release)
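For melting temperature (median over replicates), in situ in this document: HeLa Kyoto cells synchronized by double thymidine or nocodazole block, proteins quantified by TMT10plex mass spectrometry, three independent biological replicates.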
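For thermal stability score vs G1/S (z-score of summed log2 fold changes over temperatures) in this document: synchronized HeLa Kyoto cells, proteins quantified by TMT10plex mass spectrometry, three biological replicates, mitosis taken 0.5 h after nocodazole release, G1/S directly after double thymidine block.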

Chain of GORASP1 (chain, as listed by the source): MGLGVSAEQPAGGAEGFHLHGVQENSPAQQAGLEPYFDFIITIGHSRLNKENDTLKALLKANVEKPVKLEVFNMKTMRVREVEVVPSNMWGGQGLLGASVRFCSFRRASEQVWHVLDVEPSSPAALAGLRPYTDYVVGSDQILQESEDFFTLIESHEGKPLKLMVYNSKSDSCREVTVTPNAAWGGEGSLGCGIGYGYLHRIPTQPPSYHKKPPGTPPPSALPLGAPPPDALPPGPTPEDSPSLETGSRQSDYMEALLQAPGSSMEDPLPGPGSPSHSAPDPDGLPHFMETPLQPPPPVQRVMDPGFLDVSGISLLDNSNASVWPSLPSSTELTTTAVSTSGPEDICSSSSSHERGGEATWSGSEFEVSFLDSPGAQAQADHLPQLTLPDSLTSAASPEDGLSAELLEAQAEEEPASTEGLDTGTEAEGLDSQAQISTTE

Substance	thermal stability score [1, 3]	thermal stability score ([1]; cell cycle stage: mitosis)	melting temperature ([2]; cell cycle stage: G1/S) [°C]	melting temperature ([2]; cell cycle stage: mitosis) [°C]
MSVPGPYQAATGPSSAPSAPPSYEETVAVNSYYPTPPAPMPGPTTGLVTGPDGKGMNPPSYYTQPAPIPNNNPITVQTVYVQHPITFLDRPIQMCCPSCNKMIVSQLSYNAGALTWLSCGSLCLLGCIAGCCFIPFCVDALQDVDHYCPNCRALLGTYKRL [LITAF]	-0.592	-0.943		
MNPGFDLSRRNPQEDFELIQRIGSGTYGDVYKARNVNTGELAAIKVIKLEPGEDFAVVQQEIIMMKDCKHPNIVAYFGSYLRRDKLWICMEFCGGGSLQDIYHVTGPLSELQIAYVSRETLQGLYYLHSKGKMHRDIKGANILLTDNGHVKLADFGVSAQITATIAKRKSFIGTPYWMAPEVAAVERKGGYNQLCDLWAVGITAIELAELQPPMFDLHPMRALFLMTKSNFQPPKLKDKMKWSNSFHHFVKMALTKNPKKRPTAEKLLQHPFVTQHLTRSLAIELLDKVNNPDHSTYHDFDDDDPEPLVAVPHRIHSTSRNVREEKTRSEITFGQVKFDPPLRKETEPHHELPDSDGFLDSSEEIYYTARSNLDLQLEYGQGHQGGYFLGANKSLLKSVEEELHQRGHVAHLEDDEGDDDESKHSTLKAKIPPPLPPKPKSIFIPQEMHSTEDENQGTIKRCPMSGSPAKPSQVPPRPPPPRLPPHKPVALGNGMSSFQLNGERDGSLCQQQNEHRGTNLSRKEKKDVPKPISNGLPPTPKVHMGACFSKVFNGCPLKIHCASSWINPDTRDQYLIFGAEEGIYTLNLNELHETSMEQLFPRRCTWLYVMNNCLLSISGKASQLYSHNLPGLFDYARQMQKLPVAIPAHKLPDRILPRKFSVSAKIPETKWCQKCCVVRNPYTGHKYLCGALQTSIVLLEWVEPMQKFMLIKHIDFPIPCPLRMFEMLVVPEQEYPLVCVGVSRGRDFNQVVRFETVNPNSTSSWFTESDTPQTNVTHVTQLERDTILVCLDCCIKIVNLQGRLKSSRKLSSELTFDFQIESIVCLQDSVLAFWKHGMQGRSFRSNEVTQEISDSTRIFRLLGSDRVVVLESRPTDNPTANSNLYILAGHENSY [MAP4K3]	0.473	0.693		
MALSRVCWARSAVWGSAVTPGHFVTRRLQLGRSGLAWGAPRSSKLHLSPKADVKNLMSYVVTKTKAINGKYHRFLGRHFPRFYVLYTIFMKGLQMLWADAKKARRIKTNMWKHNIKFHQLPYREMEHLRQFRQDVTKCLFLGIISIPPFANYLVFLLMYLFPRQLLIRHFWTPKQQTDFLDIYHAFRKQSHPEIISYLEKVIPLISDAGLRWRLTDLCTKIQRGTHPAIHDILALRECFSNHPLGMNQLQALHVKALSRAMLLTSYLPPPLLRHRLKTHTTVIHQLDKALAKLGIGQLTAQEVKSACYLRGLNSTHIGEDRCRTWLGEWLQISCSLKEAELSLLLHNVVLLSTNYLGTRR [LETMD1]	-0.886	-0.884		
GORASP1	0.552	0.301		
MKLVFLVLLFLGALGLCLAGRRRSVQWCAVSQPEATKCFQWQRNMRKVRGPPVSCIKRDSPIQCIQAIAENRADAVTLDGGFIYEAGLAPYKLRPVAAEVYGTERQPRTHYYAVAVVKKGGSFQLNELQGLKSCHTGLRRTAGWNVPIGTLRPFLNWTGPPEPIEAAVARFFSASCVPGADKGQFPNLCRLCAGTGENKCAFSSQEPYFSYSGAFKCLRDGAGDVAFIRESTVFEDLSDEAERDEYELLCPDNTRKPVDKFKDCHLARVPSHAVVARSVNGKEDAIWNLLRQAQEKFGKDKSPKFQLFGSPSGQKDLLFKDSAIGFSRVPPRIDSGLYLGSGYFTAIQNLRKSEEEVAARRARVVWCAVGEQELRKCNQWSGLSEGSVTCSSASTTEDCIALVLKGEADAMSLDGGYVYTAGKCGLVPVLAENYKSQQSSDPDPNCVDRPVEGYLAVAVVRRSDTSLTWNSVKGKKSCHTAVDRTAGWNIPMGLLFNQTGSCKFDEYFSQSCAPGSDPRSNLCALCIGDEQGENKCVPNSNERYYGYTGAFRCLAENAGDVAFVKDVTVLQNTDGNNNEAWAKDLKLADFALLCLDGKRKPVTEARSCHLAMAPNHAVVSRMDKVERLKQVLLHQQAKFGRNGSDCPDKFCLFQSETKNLLFNDNTECLARLHGKTTYEKYLGPQYVAGITNLKKCSTSPLLEACEFLRK [LTF]	-3.21	-1.19		
MAQRAVWLISHEPGTPLCGTVRFSRRYPTVEKRARVFNGASYVPVPEDGPFLKALLFELRLLDDDKDFVESRDSCSRINKTSIYGLLIGGEELWPVVAFLKNDMIYACVPLVEQTLSPRPPLISVSGVSQGFEFLFGIQDFLYSGQKNDSELNTKLSQLPDLLLQACPFGTLLDANLQNSLDNTNFASVTQPQKQPAWKTGTYKGKPQVSISITEKVKSMQYDKQGIADTWQVVGTVTCKCDLEGIMPNVTISLSLPTNGSPLQDILVHPCVTSLDSAILTSSSIDAMDDSAFSGPYKFPFTPPLESFNLCFYTSQVPVPPILGFYQMKEEEVQLRITINLKLHESVKNNFEFCEAHIPFYNRGPITHLEYKTSFGQLEVFREKSLLIWIIGQKFPKSMEISLSGTVTFGAKSHEKQPFDPICTGETAYLKLHFRILDYTLTGCYADQHSVQVFASGKPKISAHRKLISSDYYIWNSKAPAPVTYGSLLL [AP5M1]	2.33e-19	-1.74e-18		
MVRFKHRYLLCELVSDDPRCRLSLDDRVLSSLVRDTIARVHGTFGAAACSIGFAVRYLNAYTGIVLLRCRKEFYQLVWSALPFITYLENKGHRYPCFFNTLHVGGTIRTCQKFLIQYNRRQLLILLQNCTDEGEREAIQKSVTRSCLLEEEEESGEEAAEAME [POP5]	-0.00794	-2.6		
MAAAEEGCSVGAEADRELEELLESALDDFDKAKPSPAPPSTTTAPDASGPQKRSPGDTAKDALFASQEKFFQELFDSELASQATAEFEKAMKELAEEEPHLVEQFQKLSEAAGRVGSDMTSQQEFTSCLKETLSGLAKNATDLQNSSMSEEELTKAMEGLGMDEGDGEGNILPIMQSIMQNLLSKDVLYPSLKEITEKYPEWLQSHRESLPPEQFEKYQEQHSVMCKICEQFEAETPTDSETTQKARFEMVLDLMQQLQDLGHPPKELAGEMPPGLNFDLDALNLSGPPGASGEQCLIM [G3V3G9|DCAF8]	0.212	-1		
MAGVSACIKYSMFTFNFLFWLCGILILALAIWVRVSNDSQAIFGSEDVGSSSYVAVDILIAVGAIIMILGFLGCCGAIKESRCMLLLFFIGLLLILLLQVATGILGAVFKSKSDRIVNETLYENTKLLSATGESEKQFQEAIIVFQEEFKCCGLVNGAADWGNNFQHYPELCACLDKQRPCQSYNGKQVYKETCISFIKDFLAKNLIIVIGISFGLAVIEILGLVFSMVLYCQIGNK [TSPAN8]	1.86	-1.57		
DENND4B	-0.499	-0.617		
MNRESFAAGERLVSPAYVRQGCEARRSHEHLIRLLLEKGKCPENGWDESTLELFLHELAIMDSNNFLGNCGVGEREGRVASALVARRHYRFIHGIGRSGDISAVQPKAAGSSLLNKITNSLVLDIIKLAGVHTVANCFVVPMATGMSLTLCFLTLRHKRPKAKYIIWPRIDQKSCFKSMITAGFEPVVIENVLEGDELRTDLKAVEAKVQELGPDCILCIHSTTSCFAPRVPDRLEELAVICANYDIPHIVNNAYGVQSSKCMHLIQQGARVGRIDAFVQSLDKNFMVPVGGAIIAGFNDSFIQEISKMYPGRASASPSLDVLITLLSLGSNGYKKLLKERKEMFSYLSNQIKKLSEAYNERLLHTPHNPISLAMTLKTLDEHRDKAVTQLGSMLFTRQVSGARVVPLGSMQTVSGYTFRGFMSHTNNYPCAYLNAASAIGMKMQDVDLFIKRLDRCLKAVRKERSKESDDNYDKTEDVDIEEMALKLDNVLLDTYQDASS [SEPSECS]	-1.52	-1.62		
MEERERGARSAGAGSPARPPSPRLDVSSDSFDPLLALYAPRLPPIPYPNAPCFNNVAEYESFLRTGVRGGGRGRGRARGAAAGSGVPAAPGPSGRTRRRPDAPAPDPERIQRLRRLMVAKEEGDGAAGAGRRGPGRSRKAPRNVLTRMPLHEGSPLGELHRCIREGVKVNVHIRTFKGLRGVCTGFLVAFDKFWNMALTDVDETYRKPVLGKAYERDSSLTLTRLFDRLKLQDSSKKEADSKSAVEDSTLSRYSQTSTWKLASVWGRADTGRGSHKRSRSVPSSLQASAREESRSELSGRTTRTDGSSVGGTFSRATTLSRGQSRKKKRKPKVDYQQVFTRHINQIFIRGENVLLVHLAQ [LSM11]	0.976	0.837		
MKLPIFIADAFTARAFRGNPAAVCLLENELDEDMHQKIAREMNLSETAFIRKLHPTDNFAQSSCFGLRWFTPASEVPLCGHATLASAAVLFHKIKNMNSTLTFVTLSGELRARRAEDGIVLDLPLYPAHPQDFHEVEDLIKTAIGNTLVQDICYSPDTQKLLVRLSDVYNRSFLENLKVNTENLLQVENTGKVKGLILTLKGEPGGQTQAFDFYSRYFAPWVGVAEDPVTGSAHAVLSSYWSQHLGKKEMHAFQCSHRGGELGISLRPDGRVDIRGGAAVVLEGTLTA [PBLD]	-0.159	0.989		
MGKEKTHINIVVIGHVDSGKSTTTGHLIYKCGGIDKRTIEKFEKEAAEMGKGSFKYAWVLDKLKAERERGITIDISLWKFETSKYYVTIIDAPGHRDFIKNMITGTSQADCAVLIVAAGVGEFEAGISKNGQTREHALLAYTLGVKQLIVGVNKMDSTEPPYSQKRYEEIVKEVSTYIKKIGYNPDTVAFVPISGWNGDNMLEPSANMPWFKGWKVTRKDGNASGTTLLEALDCILPPTRPTDKPLRLPLQDVYKIGGIGTVPVGRVETGVLKPGMVVTFAPVNVTTEVKSVEMHHEALSEALPGDNVGFNVKNVSVKDVRRGNVAGDSKNDPPMEAAGFTAQVIILNHPGQISAGYAPVLDCHTAHIACKFAELKEKIDRRSGKKLEDGPKFLKSGDAAIVDMVPGKPMCVESFSDYPPLGRFAVRDMRQTVAVGVIKAVDKKAAGAGKVTKSAQKAQKAK [EEF1A1]			52.4	52.4
MIEAEEQQPCKTDFYSELPKVELHAHLNGSISSHTMKKLIAQKPDLKIHDQMTVIDKGKKRTLEECFQMFQTIHQLTSSPEDILMVTKDVIKEFADDGVKYLELRSTPRRENATGMTKKTYVESILEGIKQSKQENLDIDVRYLIAVDRRGGPLVAKETVKLAEEFFLSTEGTVLGLDLSGDPTVGQAKDFLEPLLEAKKAGLKLALHLSEIPNQKKETQILLDLLPDRIGHGTFLNSGEGGSLDLVDFVRQHRIPLELCLTSNVKSQTVPSYDQHHFGFWYSIAHPSVICTDDKGVFATHLSQEYQLAAETFNLTQSQVWDLSYESINYIFASDSTRSELRKKWNHLKPRVLHI [ADAL]			57.1	57.2
